# Numbered stars: 1 amine (or outer) side, 2 acyl side, 3 side chain; on linkers, the order of the positions; unused ones are H or OH. Bridge positions count the residues as written; N and C are the ends. Side chains are listed from the residue outwards. Ends that are not written are not given here. * marks the point of attachment. C20 diacid = O=C(O)CCCCCCCCCCCCCCCCCCC(=O)*; γGlu = O=C(O)[C@H](CCC(=O)[*:2])N[*:1]; AEEA = NCCOCCOCC(=O)O
# B1: N^ε1-[2-[2-[2-[[(4S)-4-carboxy-4-(19-carboxynonadecanoylamino)butanoyl]amino]ethoxy]ethoxy]acetyl]-[Arg17,Pro21,Pro27,Arg34]-h-amylin (peptide)
# peptide: K([AEEA-γGlu-C20 diacid])CNTATCATQRLANFLRHSSPNFGAIPSSTNVGRNTY-NH2
# modifications: disulfide 2-7; N-terminus assumed
# SMILES: CC[C@H](C)[C@H](NC(=O)[C@H](C)NC(=O)CNC(=O)[C@H](Cc1ccccc1)NC(=O)[C@H](CC(N)=O)NC(=O)[C@@H]1CCCN1C(=O)[C@H](CO)NC(=O)[C@H](CO)NC(=O)[C@H](Cc1c[nH]cn1)NC(=O)[C@H](CCCNC(=N)N)NC(=O)[C@H](CC(C)C)NC(=O)[C@H](Cc1ccccc1)NC(=O)[C@H](CC(N)=O)NC(=O)[C@H](C)NC(=O)[C@H](CC(C)C)NC(=O)[C@H](CCCNC(=N)N)NC(=O)[C@H](CCC(N)=O)NC(=O)[C@@H](NC(=O)[C@H](C)NC(=O)[C@@H]1CSSC[C@H](NC(=O)[C@@H](N)CCCCNC(=O)COCCOCCNC(=O)CC[C@H](NC(=O)CCCCCCCCCCCCCCCCCCC(=O)O)C(=O)O)C(=O)N[C@@H](CC(N)=O)C(=O)N[C@@H]([C@@H](C)O)C(=O)N[C@@H](C)C(=O)N[C@@H]([C@@H](C)O)C(=O)N1)[C@@H](C)O)C(=O)N1CCC[C@H]1C(=O)N[C@@H](CO)C(=O)N[C@@H](CO)C(=O)N[C@H](C(=O)N[C@@H](CC(N)=O)C(=O)N[C@H](C(=O)NCC(=O)N[C@@H](CCCNC(=N)N)C(=O)N[C@@H](CC(N)=O)C(=O)N[C@H](C(=O)N[C@@H](Cc1ccc(O)cc1)C(N)=O)[C@@H](C)O)C(C)C)[C@@H](C)O
# notes: Analogue of human amylin; also called compound 78
# B2: N^ε1-[2-[2-[2-[[(4S)-4-carboxy-4-(19-carboxynonadecanoylamino)butanoyl]amino]ethoxy]ethoxy]acetyl]-[Arg17,Pro21,Pro27,His34]-h-amylin (peptide)
# peptide: K([AEEA-γGlu-C20 diacid])CNTATCATQRLANFLRHSSPNFGAIPSSTNVGHNTY-NH2
# modifications: disulfide 2-7; N-terminus assumed
# SMILES: CC[C@H](C)[C@H](NC(=O)[C@H](C)NC(=O)CNC(=O)[C@H](Cc1ccccc1)NC(=O)[C@H](CC(N)=O)NC(=O)[C@@H]1CCCN1C(=O)[C@H](CO)NC(=O)[C@H](CO)NC(=O)[C@H](Cc1c[nH]cn1)NC(=O)[C@H](CCCNC(=N)N)NC(=O)[C@H](CC(C)C)NC(=O)[C@H](Cc1ccccc1)NC(=O)[C@H](CC(N)=O)NC(=O)[C@H](C)NC(=O)[C@H](CC(C)C)NC(=O)[C@H](CCCNC(=N)N)NC(=O)[C@H](CCC(N)=O)NC(=O)[C@@H](NC(=O)[C@H](C)NC(=O)[C@@H]1CSSC[C@H](NC(=O)[C@@H](N)CCCCNC(=O)COCCOCCNC(=O)CC[C@H](NC(=O)CCCCCCCCCCCCCCCCCCC(=O)O)C(=O)O)C(=O)N[C@@H](CC(N)=O)C(=O)N[C@@H]([C@@H](C)O)C(=O)N[C@@H](C)C(=O)N[C@@H]([C@@H](C)O)C(=O)N1)[C@@H](C)O)C(=O)N1CCC[C@H]1C(=O)N[C@@H](CO)C(=O)N[C@@H](CO)C(=O)N[C@H](C(=O)N[C@@H](CC(N)=O)C(=O)N[C@H](C(=O)NCC(=O)N[C@@H](Cc1c[nH]cn1)C(=O)N[C@@H](CC(N)=O)C(=O)N[C@H](C(=O)N[C@@H](Cc1ccc(O)cc1)C(N)=O)[C@@H](C)O)C(C)C)[C@@H](C)O
# notes: Analogue of human amylin; also called compound 76
# B3: N^ε1-[2-[2-[2-[[(4S)-4-carboxy-4-(19-carboxynonadecanoylamino)butanoyl]amino]ethoxy]ethoxy]acetyl]-[Arg17,Pro21,Pro27,Pro28,Pro34]-h-amylin (peptide)
# peptide: K([AEEA-γGlu-C20 diacid])CNTATCATQRLANFLRHSSPNFGAIPPSTNVGPNTY-NH2
# modifications: disulfide 2-7; N-terminus assumed
# SMILES: CC[C@H](C)[C@H](NC(=O)[C@H](C)NC(=O)CNC(=O)[C@H](Cc1ccccc1)NC(=O)[C@H](CC(N)=O)NC(=O)[C@@H]1CCCN1C(=O)[C@H](CO)NC(=O)[C@H](CO)NC(=O)[C@H](Cc1c[nH]cn1)NC(=O)[C@H](CCCNC(=N)N)NC(=O)[C@H](CC(C)C)NC(=O)[C@H](Cc1ccccc1)NC(=O)[C@H](CC(N)=O)NC(=O)[C@H](C)NC(=O)[C@H](CC(C)C)NC(=O)[C@H](CCCNC(=N)N)NC(=O)[C@H](CCC(N)=O)NC(=O)[C@@H](NC(=O)[C@H](C)NC(=O)[C@@H]1CSSC[C@H](NC(=O)[C@@H](N)CCCCNC(=O)COCCOCCNC(=O)CC[C@H](NC(=O)CCCCCCCCCCCCCCCCCCC(=O)O)C(=O)O)C(=O)N[C@@H](CC(N)=O)C(=O)N[C@@H]([C@@H](C)O)C(=O)N[C@@H](C)C(=O)N[C@@H]([C@@H](C)O)C(=O)N1)[C@@H](C)O)C(=O)N1CCC[C@H]1C(=O)N1CCC[C@H]1C(=O)N[C@@H](CO)C(=O)N[C@H](C(=O)N[C@@H](CC(N)=O)C(=O)N[C@H](C(=O)NCC(=O)N1CCC[C@H]1C(=O)N[C@@H](CC(N)=O)C(=O)N[C@H](C(=O)N[C@@H](Cc1ccc(O)cc1)C(N)=O)[C@@H](C)O)C(C)C)[C@@H](C)O
# notes: Analogue of human amylin; also called compound 55
# B4: N^ε1-[2-[2-[2-[[(4S)-4-carboxy-4-(19-carboxynonadecanoylamino)butanoyl]amino]ethoxy]ethoxy]acetyl]-[Arg17,Pro21,Pro27,Pro28,Pro31]-h-amylin (peptide)
# peptide: K([AEEA-γGlu-C20 diacid])CNTATCATQRLANFLRHSSPNFGAIPPSTPVGSNTY-NH2
# modifications: disulfide 2-7
# notes: Analogue of human amylin; also called compound 53
# Target: T1, human calcitonin receptor (human, UniProt P30988 25-474)
# T1 construct: whole, on cells; Membranes prepared from a stably transfected BHK cell line (Assay VII); also called hCTR; hCT
# T1 sequence (looked up): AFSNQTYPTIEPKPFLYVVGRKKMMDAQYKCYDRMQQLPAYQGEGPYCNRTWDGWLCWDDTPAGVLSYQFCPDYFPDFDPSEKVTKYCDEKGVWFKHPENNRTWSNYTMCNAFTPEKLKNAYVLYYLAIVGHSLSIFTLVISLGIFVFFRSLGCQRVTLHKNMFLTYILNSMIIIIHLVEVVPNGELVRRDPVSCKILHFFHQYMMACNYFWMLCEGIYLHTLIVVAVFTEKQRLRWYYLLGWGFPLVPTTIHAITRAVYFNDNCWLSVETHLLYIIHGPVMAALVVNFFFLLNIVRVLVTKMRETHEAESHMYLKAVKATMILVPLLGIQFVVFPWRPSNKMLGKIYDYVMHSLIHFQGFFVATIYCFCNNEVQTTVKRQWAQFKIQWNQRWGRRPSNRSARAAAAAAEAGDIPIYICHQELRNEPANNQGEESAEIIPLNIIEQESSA
# Assay: ratio of binding IC50s: human calcitonin receptor / human amylin receptor (reference)
# Description: The resulting pellet was resuspended, homogenized and centrifuged (20.000 rpm, 15 min) in a buffer containing 20 mM Na-HEPES and 0.1 mM EDTA (pH 7.4, buffer 2). The resulting pellet was resuspended in buffer 2 and protein concentration was measured (BCA protein Assay, Pierce). The homogenate was kept cold during the whole procedure. The membranes were kept at −80° C. until use. The assay was performed in a 384 well Optiplate (PerkinElmer) in a total volume of 40 ul. Membranes were mixed with SPA beads. Final concentration of membranes 35 ng/μL final and SPA beads was 0.05 mg/well. Test-compounds were dissolved in DMSO and further diluted in assay buffer (50 mM Hepes, pH 7.4, 1 mM CaCl2, 5 mM MgCl₂, 0.1% OA and 0.02% Tween20). […] The final mixture was incubated with shaking at 400 rpm for 120 min at 25° C. prior to centrifugation (1500 rpm, 10 min). Samples were analyzed on TopCounter™ (Packard). The IC₅₀ was calculated using (one site binding competition analysis) GraphPad Prism5 as a measure of receptor affinity.
# Membranes were prepared in the following way; the cells were rinsed with PBS and incubated with Versene for approximately 5 min before harvesting. The cells were flushed with PBS and the cell-suspension was centrifuged for 5 min at 1000 rpm. Cells were homogenized (Ultrathurrax) in a buffer containing 20 mM Na-HEPES and 10 mM EDTA (pH 7.4) and centrifuged at 20.000 rpm for 15 min. The resulting pellet was resuspended, homogenized and centrifuged (20.000 rpm, 15 min) in a buffer containing 20 mM Na-HEPES and 0.1 mM EDTA (pH 7.4, buffer 2). The resulting pellet was resuspended in buffer 2 and protein concentration was measured (BCA protein Assay, Pierce). The homogenate was kept cold during the whole procedure. The membranes were kept at −80° C. until use. Assay was performed in a 384 well Optiplate (PerkinElmer) in a total volume of 40 ul. Membranes were mixed with SPA beads.
row,Binder,Ratio hCT/hAmylin binding
1,B1,60.7
2,B2,80
3,B3,51.8
4,B4,104

# Target: T2, rat amylin receptor (rat calcitonin receptor + rat RAMP 3) (rat, UniProt P32214 25-516; Q9JJ73 23-147)
# T2 construct: whole, on cells; Membranes prepared from transiently transfected BHK tk'ts 13 cells (Assay VI); also called rAmylin-R; rAmylin
# T2 sequence (looked up) 1: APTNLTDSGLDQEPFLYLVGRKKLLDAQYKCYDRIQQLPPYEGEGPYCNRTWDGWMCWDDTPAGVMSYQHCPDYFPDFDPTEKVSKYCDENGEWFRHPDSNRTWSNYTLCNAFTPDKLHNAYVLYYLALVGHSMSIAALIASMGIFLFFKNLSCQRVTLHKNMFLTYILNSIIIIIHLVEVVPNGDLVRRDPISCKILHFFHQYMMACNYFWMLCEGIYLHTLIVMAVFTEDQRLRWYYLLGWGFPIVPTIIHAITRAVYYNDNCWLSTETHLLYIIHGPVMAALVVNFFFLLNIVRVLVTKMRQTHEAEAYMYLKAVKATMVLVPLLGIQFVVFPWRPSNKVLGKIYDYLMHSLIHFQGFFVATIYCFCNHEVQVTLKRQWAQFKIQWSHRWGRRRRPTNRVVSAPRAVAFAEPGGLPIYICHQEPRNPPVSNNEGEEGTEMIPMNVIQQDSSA
# T2 sequence (looked up) 2: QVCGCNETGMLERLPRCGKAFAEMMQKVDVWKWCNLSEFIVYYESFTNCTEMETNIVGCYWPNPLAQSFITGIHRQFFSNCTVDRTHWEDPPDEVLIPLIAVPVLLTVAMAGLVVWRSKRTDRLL
# Assay: SPA competition vs 125I-rat amylin, membranes of BHK cells with rat calcitonin receptor + rat RAMP3 (Assay VI)
# Description: The binding assay was performed using scintillation proximity assay (SPA) beads (RPNQ0001) from PerkinElmer and cell membranes from the Amylin 3(a)/CRE-luc cells (as described in Assay (II)) were used. Membranes were prepared in the following way; the cells were rinsed with PBS and incubated with Versene for approximately 5 min before harvesting. The cells were flushed with PBS and the cell-suspension was centrifuged for 5 min at 1000 rpm. Cells were homogenized (ultrathurrax) in a buffer containing 20 mM Na-HEPES and 10 mM EDTA (pH 7.4) and centrifuged at 20.000 rpm for 15 min. The resulting pellet was resuspended, homogenized and centrifuged (20.000 rpm, 15 min) in a buffer containing 20 mM Na-HEPES and 0.1 mM EDTA (pH 7.4, buffer 2). The resulting pellet was resuspended in buffer 2 and protein concentration was measured (BCA protein Assay, Pierce). The homogenate was kept cold during the whole procedure. The membranes were kept at −80° C. until use. The assay was performed in a 384 well Optiplate (PerkinElmer) in a total volume of 40 ul. Membranes were mixed with SPA beads. Final concentration of membranes 35 ng/μL final and SPA beads was 0.05 mg/well. Test-compounds were dissolved in DMSO and further diluted in assay buffer (50 mM Hepes, pH 7.4, 1 mM CaCl2, 5 mM MgCl₂, 0.1% OA and 0.02% Tween20). […] The final mixture was incubated with shaking at 400 rpm for 120 min at 25° C. prior to centrifugation (1500 rpm, 10 min). Samples were analyzed on TopCounter™ (Packard). The IC₅₀ was calculated using (one site binding competition analysis) GraphPad Prism5 as a measure of receptor affinity.
# Cells were grown in DMEM with 10% FBS and 1% Pen/Strep. Approximately 48 hours after transfection, the cells were harvested and membranes were prepared.
row,Binder,IC50
1,B1,1.3 nM
2,B2,0.686 nM
3,B3,0.081 nM
4,B4,0.084 nM

# Target: T3, rat calcitonin receptor (rat, UniProt P32214 25-516)
# T3 construct: whole, on cells; Membranes prepared from transiently transfected BHK tk'ts 13 cells (Assay VIII); also called rCTR; rCT
# T3 sequence (looked up): T2 sequence (looked up) 1
# Assay: ratio of binding IC50s: rat calcitonin receptor / rat amylin receptor (reference)
row,Binder,Ratio rCT/rAmylin binding
1,B1,69.9
2,B2,56.8
3,B3,77.2
4,B4,130

# Target: T3, rat calcitonin receptor
# Assay: SPA competition vs 125I-calcitonin, membranes of BHK cells with rat calcitonin receptor (Assay VIII)
row,Binder,IC50
1,B1,90.6 nM
2,B2,38.9 nM
3,B3,6.25 nM
4,B4,10.9 nM
